Reference: patent publication US20230405046A1 (published 2023)
Blank lines part the entries; values can stand above or below the binder they belong to.

Columns and labels:
[1] = molecular target: NY-ESO-1 peptide on HLA-B*40:01 (human); experiment: killing
[2] = molecular target: T1, NY-ESO-1 peptide on HLA-B*35:03 (human); experiment: killing
T1 peptide: MPFATPMEAEL

[3] = molecular target: T2, MAGE-A3 peptide on HLA-A*01:01 (human); experiment: multimer staining
T2 peptide: EVDPIGHLY

[4] = molecular target: T3, NY-ESO-1 peptide on HLA-B*35:03 (human); experiment: killing
T3 peptide: MPFATPMEA

[5] = molecular target: T4, NY-ESO-1 peptide on HLA-A*02:01 (human); experiment: killing
T4 peptide: SLLMWITQC

[6] = molecular target: T5, MAGE-A3 peptide on HLA-DRB1*13:02 (human); experiment: cytokine release
T5 peptide: TSYVKVLHHMVKISG

[7] = molecular target: T6, MAGE-A3 peptide on HLA-DRB1*11:01 (human); experiment: cytokine release
T6 peptide: TSYVKVLHHMVKISG

[8] = molecular target: T7, KRAS Q61H peptide on HLA-A*01:01 (human); experiment: IFNγ ELISPOT; peptide titration (1 µM to 0.1 nM) on HLA-A*01:01-transfected K562; full-length, on cells
T7 peptide: ILDTAGHEEY

[9] = molecular target: T2, MAGE-A3 peptide on HLA-A*01:01; experiment: cytokine release
[10] = molecular target: T8, NY-ESO-1 peptide on HLA-C*03:04 (human); experiment: multimer staining
T8 peptide: FATPMEAEL

B1: TCRCD8-53-02-NY #109 (TCR, V domains shown)
Valpha: GQQVMQIPQYQHVQEGEDFTTYCNSSTTLSNIQWYKQRPGGHPVFLIQLVKSGEVKKQKRLTFQFGEAKKNSSLHITATQTTDVGTYFCADNAGNMLTFGGGTRLMVKP
Vbeta: GAVVSQHPSWVICKSGTSVKIECRSLDFQATTMFWYRQFPKQSLMLMATSNEGSKATYEQGVEKDKFLINHASLTLSTLTVTSAHPEDSSFYICSARDPGRNYGYTFGSGTRLTVV
binding result [1]: recognises

B2: TCRCD8-53-02-NY #110 (TCR, V domains shown)
Valpha: GQQVMQIPQYQHVQEGEDFTTYCNSSTTLSNIQWYKQRPGGHPVFLIQLVKSGEVKKQKRLTFQFGEAKKNSSLHITATQTTDVGTYFCGDNAGNMLTFGGGTRLMVKP
Vbeta: GAVVSQHPSWVICKSGTSVKIECRSLDFQATTMFWYRQFPKQSLMLMATSNEGSKATYEQGVEKDKFLINHASLTLSTLTVTSAHPEDSSFYICSARDEDRPYGYTFGSGTRLTVV
binding result [1]: recognises

B3: TCRCD8-NY#102 (TCR, V domains shown)
Valpha: AQSVAQPEDQVNVAEGNPLTVKCTYSVSGNPYLFWYVQYPNRGLQFLLKYITGDNLVKGSYGFEAEFNKSQTSFHLKKPSALVSDSALYFCAVRDIEVVNAGNMLTFGGGTRLMVKP
Vbeta: ETGVTQSPTHLIKTRGQQVTLRCSSQSGHNTVSWYQQALGQGPQFIFQYYREEENGRGNFPPRFSGLQFPNYSSELNVNALELDDSALYLCASTDRVRYEQFFGPGTRLTVL
binding result [2]: recognises

B6: TCRCD8-NY#99 (TCR, V domains shown)
Valpha: KQEVTQIPAALSVPEGENLVLNCSFTDSAIYNLQWFRQDPGKGLTSLLLIQSSQREQTSGRLNASLDKSSGRSTLYIAASQPGDSATYLCAPNDYKLSFGAGTTVTVRA
Vbeta: KAGVTQTPRYLIKTRGQQVTLSCSPISGHRSVSWYQQTPGQGLQFLFEYFSETQRNKGNFPGRFSGRQFSNSRSEMNVSTLELGDSALYLCASSFSSDNEQFFGPGTRLTVL
binding result [2]: recognises

B7: TCRCD8-NY#101 (TCR, V domains shown)
Valpha: AQTVTQSQPEMSVQEAETVTLSCTYDTSESDYYLFWYKQPPSRQMILVIRQEAYKQQNATENRFSVNFQKAAKSFSLKISDSQLGDAAMYFCAYRSDAGGTSYGKLTFGQGTILTVHP
Vbeta: ETGVTQSPTHLIKTRGQQVTLRCSSQSGHNTVSWYQQALGQGPQFIFQYYREEENGRGNFPPRFSGLQFPNYSSELNVNALELDDSALYLCASSPRTGGAGNTIYFGEGSWLTVV
binding result [4]: recognises

B8: TCRCD8-EL28-NYE #2 (TCR, V domains shown)
Valpha: SQELEQSPQSLIVQEGKNLTINCTSSKTLYGLYWYKQKYGEGLIFLMMLQKGGEEKSHEKITAKLDEKKQQSSLHITASQPSHAGIYLCGADMLDYQKVTFGIGTKLQVIP
Vbeta: DAGVIQSPRHEVTEMGQEVTLRCKPISGHDYLFWYRQTMMRGLELLIYFNNNVPIDDSGMPEDRFSAKMPNASFSTLKIQPSEPRDSAVYFCASRRGGSEQYFGPGTRLTVT
binding result [5]: recognises

B16: TCRCD8-NY#100 (TCR, V domains shown)
Valpha: SQQGEEDPQALSIQEGENATMNCSYKTSINNLQWYRQNSGRGLVHLILIRSNEREKHSGRLRVTLDTSKKSSSLLITASRAADTASYFCATDSNDYKLSFGAGTTVTVRA
Vbeta: GAGVSQSPRYKVTKRGQDVALRCDPISGHVSLYWYRQALGQGPEFLTYFNYEAQQDKSGLPNDRFSAERPEGSISTLTIQRTEQRDSAMYRCASSWGGELFFGEGSRLTVL
binding result [2]: recognises

Now from value to binder:

binding result [3]: recognises
B4: TCRCD8-MA3#7 (TCR, V domains shown)
Valpha: ELKVEQNPLFLSMQEGKNYTIYCNYSTTSDRLYWYRQDPGKSLESLFVLLSNGAVKQEGRLMASLDTKARLSTLHITAAVHDLSATYFCAEPNTDKLIFGTGTRLQVFP
Vbeta: DAMVIQNPRYQVTQFGKPVTLSCSQTLNHNVMYWYQQKSSQAPKLLFHYYDKDFNNEADTPDNFQSRRPNTSFCFLDIRSPGLGDTAMYLCATNYDRGYEQYFGPGTRLTVT

binding result [3]: recognises
B5: TCRCD8-MA3#8 (TCR, V domains shown)
Valpha: QKEVEQNSGPLSVPEGAIASLNCTYSDRGSQSFFWYRQYSGKSPELIMFIYSNGDKEDGRFTAQLNKASQYVSLLIRDSQPSDSATYLCAVWATGNQFYFGTGTSLTVIP
Vbeta: DAMVIQNPRYQVTQFGKPVTLSCSQTLNHNVMYWYQQKSSQAPKLLFHYYDKDFNNEADTPDNFQSRRPNTSFCFLDIRSPGLGDTAMYLCATSFDRGYEQYFGPGTRLTVT

binding result [6]: recognises
B9: TCRCD4-MA3#5 (TCR, V domains shown)
Valpha: AQSVTQLGSHVSVSEGALVLLRCNYSSSVPPYLFWYVQYPNQGLQLLLKYTSAATLVKGINGFEAEFKKSETSFHLTKPSAHMSDAAEYFCAVSDGGATNKLIFGTGTLLAVQP
Vbeta: DGGITQSPKYLFRKEGQNVTLSCEQNLNHDAMYWYRQDPGQGLRLIYYSQIVNDFQKGDIAEGYSVSREKKESFPLTVTSAQKNPTAFYLCASSSGGRASFTQYFGPGTRLTVL

binding result [3]: recognises
B10: TCRCD8-MA3#10 (TCR, V domains shown)
Valpha: RKEVEQDPGPFNVPEGATVAFNCTYSNSASQSFFWYRQDCRKEPKLLMSVYSSGNEDGRFTAQLNRASQYISLLIRDSKLSDSATYLCVVNERNSGYALNFGKGTSLLVTP
Vbeta: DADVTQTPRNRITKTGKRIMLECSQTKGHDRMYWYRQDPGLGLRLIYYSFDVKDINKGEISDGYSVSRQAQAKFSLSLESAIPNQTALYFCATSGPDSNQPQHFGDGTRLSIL

binding result [7]: recognises
B11: TCRCD4-MA3#9 (TCR, V domains shown)
Valpha: GNSVTQMEGPVTLSEEAFLTINCTYTATGYPSLFWYVQYPGEGLQLLLKATKADDKGSNKGFEATYRKETTSFHLEKGSVQVSDSAVYFCALSDPNNQGGKLIFGQGTELSVKP
Vbeta: DTAVSQTPKYLVTQMGNDKSIKCEQNLGHDTMYWYKQDSKKFLKIMFSYNNKELIINETVPNRFSPKSPDKAHLNLHINSLELGDSAVYFCASSQVRGTTEAFFGQGTRLTVV

minimal recognised peptide concentration [8]: 10 nM
B12: TCRCD8-EL8-LM7 #1 (TCR, V domains shown)
Valpha: AQKITQTQPGMFVQEKEAVTLDCTYDTSDPSYGLFWYKQPSSGEMIFLIYQGSYDQQNATEGRYSLNFQKARKSANLVISASQLGDSAMYFCAMREGQDSSYKLIFGSGTRLLVRP
Vbeta: DSGVTQTPKHLITATGQRVTLRCSPRSGDLSVYWYQQSLDQGLQFLIQYYNGEERAKGNILERFSAQQFPDLHSELNLSSLELGDSALYFCASSVLGPNTEAFFGQGTRLTVV

binding result [9]: recognises
B13: TCRCD8-C1-40-MA3 #1 (TCR, V domains shown)
Valpha: GQQLNQSPQSMFIQEGEDVSMNCTSSSIFNTWLWYKQEPGEGPVLLIALYKAGELTSNGRLTAQFGITRKDSFLNISASIPSDVGIYFCAGQLRYGGATNKLIFGTGTLLAVQP
Vbeta: DSGVTQTPKHLITATGQRVTLRCSPRSGDLSVYWYQQSLDQGLQFLIHYYNGEERAKGNILERFSAQQFPDLHSELNLSSLELGDSALYFCASSVGGASYEQYFGPGTRLTVT

minimal recognised peptide concentration [8]: 10 nM
B14: TCRCD8-EL8-LM7 #4 (TCR, V domains shown)
Valpha: AQKVTQAQTEISVVEKEDVTLDCVYETRDTTYYLFWYKQPPSGELVFLIRRNSFDEQNEISGRYSWNFQKSTSSFNFTITASQVVDSAVYFCALSNAGGTSYGKLTFGQGTILTVHP
Vbeta: EAQVTQNPRYLITVTGKKLTVTCSQNMNHEYMSWYRQDPGLGLRQIYYSMNVEVTDKGDVPEGYKVSRKEKRNFPLILESPSPNQTSLYFCASSRRLPPPYGYTFGSGTRLTVV

minimal recognised peptide concentration [8]: 10 nM
B15: TCRCD8-EL8-LM7 #7 (TCR, V domains shown)
Valpha: AQKVTQAQTEISVVEKEDVTLDCVYETRDTTYYLFWYKQPPSGELVFLIRRNSFDEQNEISGRYSWNFQKSTSSFNFTITASQVVDSAVYFCALSESSNTGKLIFGQGTTLQVKP
Vbeta: EAQVTQNPRYLITVTGKKLTVTCSQNMNHEYMSWYRQDPGLGLRQIYYSMNVEVTDKGDVPEGYKVSRKEKRNFPLILESPSPNQTSLYFCASSRREPPPYGYTFGSGTRLTVV

binding result [10]: recognises
B17: TCRCD8-53-02-NY #107 (TCR, V domains shown)
Valpha: GQNIDQPTEMTATEGAIVQINCTYQTSGFNGLFWYQQHAGEAPTFLSYNVLDGLEEKGRFSSFLSRSKGYSYLLLKELQMKDSASYLCAVRLGDAGNMLTFGGGTRLMVKP
Vbeta: DSGVTQTPKHLITATGQRVTLRCSPRSGDLSVYWYQQSLDQGLQFLIQYYNGEERAKGNILERFSAQQFPDLHSELNLSSLELGDSALYFCASSVGRGMNTEAFFGQGTRLTVV
